Targets include HLA-A*02:06; HLA-A*02:03; HLA-A*31:01; HLA-A*11:01; HLA-A*68:01; HLA-A*03:01; HLA-A*33:01.
Common to all, as to experiment: IEDB peptide-MHC binding, purified MHC/competitive/radioactivity; filed as Kd, often an IC50 or EC50 that approximates it; ≥ and ≤ were set here for values at or beyond the usual limits of such assays
Another test has as its target HLA-A*02:02. The following applies: source organism: Vaccinia virus WR.
Setting [1] is: source organism: Vaccinia virus WR.
[2] abbreviates: source organism: Dengue virus 3 Martinique/1243/1999.
Where [3] appears, read: source organism: Mammarenavirus brazilense.
The mark [4] stands for this setting: source organism: SARS coronavirus Tor2.
Where [5] appears, read: source organism: Mammarenavirus lassaense.
[6] abbreviates: source organism: Lassa virus Josiah.

pKd: −log10 of the molar value.

As a reminder, the pKd is the Kd on a negative log10 scale, so that one unit is a factor of ten.

On to CAVIPFDDIV, for which the results for the negative logarithm of the Kd (pKd) with HLA-A*02:06 (setting [1]), in the test with HLA-A*02:03 (setting [1]) and with HLA-A*02:02 were 6.74, 5.13 and 5.53, respectively.

As for LIYDDNIDSI, the negative logarithm of the Kd (pKd) is 6.67 in the test with HLA-A*02:06 (setting [1]), 7.58 with HLA-A*02:03 (setting [1]) and 6.92 with HLA-A*02:02.

As for VQLSNNKYV, the pKd with HLA-A*02:06 (setting [1]) is 6.67; with HLA-A*02:03 (setting [1]), 6.27; with HLA-A*02:02 it was 5.13.

On to DLKHATDYIA, for which the pKd with HLA-A*02:06 (setting [1]) was 5.98; with HLA-A*02:03 (setting [1]), 5.53; with HLA-A*02:02, 5.06.

On to AVFKMSPGYV, for which the pKd with HLA-A*02:03 (source organism: Dengue virus 4 Philippines/H241/1956) is 8.15.

Consider TSETMYLTMK, for which the pKd was 5.70 in the test with HLA-A*31:01 (setting [1]); 6.95 in the test with HLA-A*11:01 (setting [1]); 6.33 with HLA-A*68:01 (setting [1]); 5.72 in the test with HLA-A*03:01 (setting [1]); 4.96 in the test with HLA-A*33:01 (setting [1]).

For the sequence ILSKIPYLR, the pKd with HLA-A*31:01 (setting [1]) was 8.60; with HLA-A*11:01 (setting [1]), 7.51; with HLA-A*68:01 (setting [1]), 7.88; in the test with HLA-A*03:01 (setting [1]), 6.22; with HLA-A*33:01 (setting [1]), 7.01.

Regarding AQPGLLSYV, the pKd in the test with HLA-A*02:03 (source organism: Mammarenavirus guanaritoense) is 8.26.

On to SSDSENNPEY, for which the pKd is ≤ 4.15 with HLA-A*31:01 (setting [1]); 5.35 with HLA-A*11:01 (setting [1]); ≤ 4.15 in the test with HLA-A*68:01 (setting [1]); ≤ 4.15 in the test with HLA-A*03:01 (setting [1]); ≤ 4.15 with HLA-A*33:01 (setting [1]).

For LLDSIKMIY, the negative logarithm of the Kd (pKd) is 5.47 in the test with HLA-A*31:01 (setting [1]); 4.75 with HLA-A*11:01 (setting [1]); 6.14 in the test with HLA-A*68:01 (setting [1]); 5.33 in the test with HLA-A*03:01 (setting [1]); ≤ 4.31 with HLA-A*33:01 (setting [1]).

As for LIIGPMFSGK, the negative logarithm of the Kd (pKd) with HLA-A*31:01 (setting [1]) is 5.90; in the test with HLA-A*11:01 (setting [1]) it was 8.74; in the test with HLA-A*68:01 (setting [1]), 8.00; in the test with HLA-A*03:01 (setting [1]), 8.21; in the test with HLA-A*33:01 (setting [1]), 5.59.

For the sequence SVTKSSSWK, the negative logarithm of the Kd (pKd) in the test with HLA-A*31:01 (setting [1]) is 4.71; with HLA-A*11:01 (setting [1]), 8.60; in the test with HLA-A*68:01 (setting [1]) it was 7.39; with HLA-A*03:01 (setting [1]) it was 8.12; with HLA-A*33:01 (setting [1]) it was ≤ 4.11.

As for ASILSLETVK, the negative-log Kd (pKd) was 4.89 with HLA-A*31:01 (setting [1]); 7.60 with HLA-A*11:01 (setting [1]); 5.75 in the test with HLA-A*68:01 (setting [1]); 5.33 with HLA-A*03:01 (setting [1]); ≤ 4.15 with HLA-A*33:01 (setting [1]).

For YVASYLLAA, the negative logarithm of the Kd (pKd) in the test with HLA-A*02:03 (source organism: Homo sapiens) was 9.01.

As for GIITLYLGAV, the negative logarithm of the Kd (pKd) with HLA-A*02:06 (setting [2]) and with HLA-A*02:03 (setting [2]) was 8.30 each time.

TILIRTGLLV: in the test with HLA-A*02:06 (source organism: Dengue virus 2 Jamaica/1409/1983), the negative logarithm of the Kd (pKd) was 7.00.

Turning to AMYYAVLSEY, the pKd is 5.55 with HLA-A*31:01 (setting [1]); 7.05 with HLA-A*11:01 (setting [1]); 6.01 with HLA-A*68:01 (setting [1]); ≥ 9.00 with HLA-A*03:01 (setting [1]); 5.28 in the test with HLA-A*33:01 (setting [1]).

In the case of IMAYVNQAH, the negative-log Kd (pKd) with HLA-A*31:01 (setting [3]) is 5.47; with HLA-A*11:01 (setting [3]), ≤ 4.57; with HLA-A*68:01 (setting [3]), ≤ 4.63; with HLA-A*03:01 (setting [3]), 5.66; with HLA-A*33:01 (setting [3]) it was ≤ 4.44.

TFFIFNKLVK: the pKd is 5.81 with HLA-A*31:01 (setting [4]); 7.30 with HLA-A*11:01 (setting [4]); 6.31 with HLA-A*68:01 (setting [4]); 7.09 with HLA-A*03:01 (setting [4]); 5.86 in the test with HLA-A*33:01 (setting [4]).

For QILDNAAKY, the pKd in the test with HLA-A*31:01 (setting [1]) was ≤ 4.11; in the test with HLA-A*11:01 (setting [1]) it was 5.06; with HLA-A*68:01 (setting [1]), ≤ 4.11; with HLA-A*03:01 (setting [1]) it was ≤ 4.11; in the test with HLA-A*33:01 (setting [1]) it was ≤ 4.11.

Take VCSFYADPK: the pKd was ≤ 4.57 with HLA-A*31:01 (setting [5]); 5.50 with HLA-A*11:01 (setting [5]); 5.25 in the test with HLA-A*68:01 (setting [5]); 5.42 with HLA-A*03:01 (setting [5]); ≤ 4.11 with HLA-A*33:01 (setting [5]).

Take NLDLFMSHVK: the negative logarithm of the Kd (pKd) was 5.11 in the test with HLA-A*31:01 (setting [1]); 7.16 in the test with HLA-A*11:01 (setting [1]); 6.07 with HLA-A*68:01 (setting [1]); 7.71 with HLA-A*03:01 (setting [1]); 5.54 in the test with HLA-A*33:01 (setting [1]).

On to FIVPEFAKQY, for which the pKd in the test with HLA-A*31:01 (setting [1]) was ≤ 4.15; with HLA-A*11:01 (setting [1]), ≤ 4.16; with HLA-A*68:01 (setting [1]) it was 4.95; with HLA-A*03:01 (setting [1]), ≤ 4.15; in the test with HLA-A*33:01 (setting [1]) it was ≤ 4.15.

As to SFYLISIFLH, the pKd was 6.80 with HLA-A*31:01 (setting [6]); 4.77 with HLA-A*11:01 (setting [6]); 5.49 with HLA-A*68:01 (setting [6]); 5.99 in the test with HLA-A*03:01 (setting [6]); 6.55 with HLA-A*33:01 (setting [6]).

In the case of NISIISIRPR, the negative logarithm of the Kd (pKd) was 7.30 with HLA-A*31:01 (setting [1]); 6.06 with HLA-A*11:01 (setting [1]); 8.29 in the test with HLA-A*68:01 (setting [1]); 5.58 with HLA-A*03:01 (setting [1]); 6.55 with HLA-A*33:01 (setting [1]).

On to KTQFNYFKK, for which the pKd with HLA-A*31:01 (setting [4]) was 8.63; with HLA-A*11:01 (setting [4]), 8.65; with HLA-A*68:01 (setting [4]), 5.55; with HLA-A*03:01 (setting [4]), 6.94; in the test with HLA-A*33:01 (setting [4]), ≤ 4.11.
